From US20090282582A1, “ENVIRONMENTAL STRESS RESPONSIVE PROMOTER AND METHOD OF TISSUE-SPECIFIC GENE EXPRESSION USING THE SAME” (RIKEN, priority 2006, published 2009)

Legend:
[1] = tested on: transgenic Arabidopsis thaliana plant body (luciferase reporter gene); assay: luciferase assay of promoter::LUC transgenic plants after environmental stress application; type: in vivo; conditions: for activity to induce gene expression compared with other promoters: in vivo; for Tissue allowing specific induction: summary over stress types
In short: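 Arabidopsis lines carrying promoter::luciferase, 10 days after sowing on MS agar, sprayed with 1 mM luciferin (0.01% Triton-X), 5 min dark, imaged by ARGUS before stress. Stresses: 4° C, 2 h air dehydration, 250 mM NaCl or 100 μM ABA to roots; luminescence at 2, 5, 10 h.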

[2] = tested on: Arabidopsis thaliana (columbia ecotype) plant body; assay: full-length cDNA microarray analysis of gene expression levels after environmental stress application; conditions: in vivo
In short: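 Three-week-old Arabidopsis grown at 22° C. on a 16 h light/8 h dark cycle were stressed by 4° C. cold, 2 h open-plate dehydration, or root application of MS medium containing 250 mM NaCl or 100 μM ABA. Total RNA/mRNA from stressed and unstressed plants was reverse transcribed with Cy3/Cy5 dUTP and hybridized to full-length cDNA microarrays.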

B1: Promoter of RAFL08-17-O07: environmental stress responsive promoter DNA, SEQ ID NO: 8, upstream of At2g29450 (glutathione S-transferase) (nucleic acid, listed as Arabidopsis thaliana)
DNA: CGGTGGCAAAACAATTGGATTTTTGGACTTGGTCGCAGGAAGTATGATCCCGTTTTGTCTTGCTCGAGGTTGGGAAGGTATGGGAATTGATATGATTCCAGAGGAAAAGTTTCCAGAGCTAAACAGATGGATCAAAAATTTGAAAGAAATTGAGATCGTGAGAGAATGTATTCCTCCTAGAGAGGAACAAATTGAGCATATGAAGAAAGTTGTAGAAAGAATCAAATCAGCCTAAGAGACAACAATGATACTCTTCGATCAGTAGATGTTAACTATATGTTTGTGTAATCTTGTTATAATAGTTTGTATGAACAATAAATGAAACATTTGTATGAACAATTAGTGTTTTTACTAAATTCTAATGTCAATTAATTATTATAAACATTTTAAATGTAGTAGTATTCAATTTCTTACAAATCATAAGAAATTGGTTCATAAACCTGGAGTTTTCATATGAAAGAAAAGTAGATAAAAGCTATAATTTAGTCAAACCATCCTTCTTAATAAAACCACAACTATGATTAAATGTGAACATGTATTTCGACACGTAAGAAGTTGTGTAAACAGAGGAAAGTACAACGGACATGTGGGTCTATTTGTTGCGGCACAATATAACAAATTTCTTTAGTATATTTTTAGTATCGTGAGGTGGTGAGTCTTGTAACCATAGAAAATTCACCGATACTTTATAACATTGTTGGAAGGAAAATTCAGCAAACAAGTTCGTAGATGGAGAAACGGAAAAACCAACGCCTATTATAACAACAACATTTTTAATATATGCCAAAAGGAACATCAAATAACAGATTAGTACTAATTCTTTTTTTATAGCTCAGACTATAGAGTTGTTTGTTTTCTTGGGCGTCAATATAACAAACGAGAATGACAAATGGTTTTAAAGCTGTTGATGTTTCATACACAGACAAAATGGATCAATTATGAAGAACCACGATAAAGTGATGGGTATAATTGGGGAAGCAGAAGAAATTCTTGACGAAGCATGGGGTTGTCTTCAGAAAATGAATGGATCAAGTCAAGGTACACATGCTCCAGGGATAAGGCAAGGTTAGGAATTAGGACACATCTCCACTTACTAAAAAAGAGATAAAAAAAAATTATAAAGGGAACGTTATAAATATGTTGTAAAGTCAACATCTGTTTCCTTCTAGACTCTTCGCATTTACATCACACTGCCGACCATATAAAACGGCAAAGTTCGTCGTCGTTTTATCACAAGACCATCAACACCATAAGGCTATAAATCCAAGCTAAAAGGTAGTGATTAACTCCACAAAACCAGAAAAAACTACATTTCTAACATATAGAAGAAACAGAGAAAAAGAGAGAGAGACCCCTA
Tissue in which specific induction of expression is realized ([1]; ABA stress (100 μM ABA)): Root tissue
Tissue in which specific induction of expression is realized ([1]; ABA stress (100 μM ABA), listed as promoter of RAFL08-17-O07): root tissue
activity to induce gene expression compared with other promoters [1]: lower than that of other promoters
Tissue allowing specific induction [1]: Root tissue
Environmental stress type to which the promoter responds [2]: Dehydration and salt

B2: Promoter of RAFL09-07-M01: environmental stress responsive promoter DNA, SEQ ID NO: 7, upstream of At4g20830 (protein containing FAD-binding domain) (nucleic acid, listed as Arabidopsis thaliana)
DNA: AGGTGCAGGAGATTGAATCGAAGCTTCGTTTATAAAACAATGTACATAGTTGTTTAAAGTCTTAAAGTTGGACTTTTCTTTTGCTCAGCCCCACAAACCCAATTGGATTATAATACCGACGCCGACCAATCAATGCTACGACCATTGACTTATAAAACATACATCGGACACACACAAAAAAAAACTACACTTTTTGTATCAGCAATCTTTTTAGTTATTTGTTTTCAGTTATATAAATCAATGTTTGTGTTTTCTAATAACAGTTATTAGTATGCTAGTGATGCATGGTTAAAAAAAAAAAAAGAAATTTCAAATATATATTTTAATTTGCATTATGTAAAATATTTTAAAAATAAGTCCCTAGTACCAATGGAGTGTTTTTGTTTAAGCTACAAGTGAATTATAATACGTAGTAATCTTGATTCAAATGGAAAGATTTACCATGTGGGTCTATACCAAAACCGTGTCCTTTTTCATATGTATGAATCTCTAATAGTTGCTTCTTTTGACTAGAATAATTTGTAAAGTAACTCCTAATTCATAAATATTGAAGATTAGTCTGATTTATTATTAATATGCAAATCTCTGATTAATAAGAAATAAATTATAATAGAAATATTGATGTGTACTGATCATCTTTTAATAAATGTTTGAGACTACAAATACTATAATGAATCAAATGAACATAAATGTATAGATGAACTGAATAAAATTCCAGATACACCTTGAATTAAATATGTATTCATAGTATTTTTTTTTAAAATGAAATCTGGATTTTAAATCCTTATTATTCAAAAAAATCTTCTCCTTTGATATTTTTGCTATAACAAATTAAAATAAAATCTGTAATCACTAATCATATCCCTTAACTCCCTTTAATATCTTTTGTTGACCAAAACAAATATTTTTTTGTTATATGCAACGAATAAAAAAACATTGAAAGTACTTTCCAAAAACAAAACACGTCTTCTTCTCCCTGCGGTTATAAATAGACACGGATAAGTACAAAGAACAGAGGAACACGAGACCCAAGAAAAAGATCTCAAA
Tissue in which specific induction of expression is realized ([1]; Salt stress (250 mM NaCl)): Stem and leaf tissue and root tissue
Tissue in which specific induction of expression is realized ([1]; Salt stress (250 mM NaCl), listed as promoter of RAFL09-07-M01): stem and leaf tissue and root tissue
activity to induce gene expression compared with other promoters [1]: lower than that of other promoters
Tissue allowing specific induction [1]: Stem and leaf tissue and root tissue
Environmental stress type to which the promoter responds [2]: Dehydration and salt
